Laboratory results published in publication PMC10892419, “UHPLC-MS/MS Assay for Quantification of Legubicin, a Novel Doxorubicin-Based Legumain-Activated Prodrug, and Its Application to Pharmacokinetic and Tissue Distribution Studies” (Molecules, 2024).
Residues, ends and D or L forms follow the SMILES beside them. *: point of attachment. Doxorubicin(3'-N) = COc1cccc2c1C(=O)c1c(O)c3c(c(O)c1C2=O)C[C@@](O)(C(=O)CO)C[C@@H]3O[C@H]1C[C@H](N*)[C@H](O)[C@H](C)O1; Hexanoyl(6-maleimido) = O=C1C=CC(=O)N1CCCCCC(=O)*

Columns and labels:
[1] = cited from earlier work
[2] = Tissue-distribution study after i.v. legubicin or doxorubicin; conditions: HT1080 tumor-bearing mice
Protocol: The mixture was vortexed for 3 min, and then centrifuged at 22,000× g at 4 °C for 10 min. A final analysis was conducted by injecting 5 µL supernatant into a UHPLC-MS/MS system. Mouse plasma samples were treated in the same way as the rat plasma samples, except for protein precipitation, with 200 µL of 5 pmol/mL IS working solution and injection of 2 µL of supernatant for analysis.
Each legubicin administration group corresponded to a sampling time-point (4, 16, 32, 48, 96, 168, and 240 h after administration). […] Blood samples and tumor, heart, and kidney tissues were collected at the sampling time points (4, 16, 32, 48, 96, 168, and 240 h after dosing). In addition, liver, spleen, lung, stomach, small intestine, gonads, brain, skeletal muscle, and skin were also collected at 4, 32, 96, and 240 h post-dose time points in the legubicin administration group. All whole-blood samples were processed according to the same processing steps, described above, for rat whole-blood samples.
The analysis software (Version 1.5.2, AB Sciex, Vaughan, ON, Canada) was applied to data acquisition and quantification. Pharmacokinetic parameters were calculated with WinNonlin Phoenix (v6.4, Pharsight, Mountain View, CA, USA) with the noncompartmental method, and were presented as mean ± SD (%CV). The “Best fit” strategy in the WinNonlin Phoenix was used for the calculation of elimination half-life and the selection of the elimination phase. Graphs were plotted by GraphPad Software (GraphPad Prism 8.0.2; GraphPad Software, Inc., La Jolla, CA, USA).

[3] = acute toxicological assessment in dogs; ref unpublished preclinical studies at the authors' institution; cited from earlier work
[4] = legubicin vs equimolar doxorubicin (9.05 µmol/kg i.v.)

SMILES	AUC ([1]; doses equivalent to 2.5 mg/kg of doxorubicin) [µM·h]	clearance (CL) ([1]; published value)	T/P Ratio of doxorubicin, kidney ([2]; i.v. 9.05 µmol/kg of the labelled drug, n = 6, tissue-to-plasma ratio)	fold decrease in doxorubicin exposure (AUClast) in the heart [2, 4] [fold]	fold decrease in doxorubicin exposure (AUClast) in the kidney [2, 4] [fold]	fold increase in tumor doxorubicin exposure (AUClast) [2, 4] [fold]	MTD relative to doxorubicin [3]	maximum tolerated dose (MTD) [3] [mg/kg]
COc1cccc2c1C(=O)c1c(O)c3c(c(O)c1C2=O)C[C@@](O)(/C(CO)=N/NC(=O)CCCCCN1C(=O)C=CC1=O)C[C@@H]3O[C@H]1C[C@H](N)[C@H](O)[C@H](C)O1 [DOXO-EMCH, doxorubicin (6-maleimidocaproyl) hydrazone]	536	approximately 7.9 mL/h/kg						
COc1cccc2c1C(=O)c1c(O)c3c(c(O)c1C2=O)C[C@@](O)(C(=O)CO)C[C@@H]3O[C@H]1C[C@H](NC(=O)[C@H](CC(C)C)NC(=O)[C@H](CC(N)=O)NC(=O)[C@H](C)NC(=O)[C@H](C)NC(=O)CCCCCN2C(=O)C=CC2=O)[C@H](O)[C@H](C)O1 [Legubicin] ({Hexanoyl(6-maleimido)}-AANL-{Doxorubicin(3'-N)})			28.9	3.3	3.5	1.8	tenfold increase compared to doxorubicin	15
